“Also recorded” adds a separate entry of the source.
What was measured:
IDO1 = test: Intra-hippocampal microinjection in naive rats: hippocampal IDO1 mRNA (real-time PCR); assay type: in vivo, rat; conditions: 0.1 μg once daily x 7 d into the left hippocampus of naive rats; P<0.05
Protocol: (§1) Under brief isoflurane anesthesia, a guide cannula (26 gauge, Plasticsone) was implanted just above the hippocampus (AP: −3.6 mm; left: +2.0 mm from Bregma; depth: −4.0 mm from skin) (Paxinos, G., and Watson, C. 1998. The rat brain in stertaxic coordinates. New York: Academic Press). An injection needle (33 gauge, Plasticsone) was inserted through the guide cannula and drug solution or vehicle (0.5 μl) was slowly injected over 5 min using a Hamilton syringe. Locations of the cannula placement were confirmed at the time of tissue harvest (data not shown).
Total RNA was isolated from hippocampal samples using TRIzol reagent (Invitrogen). Four μg of total RNA was used to synthesize the first strand cDNA using SuperScript III kit (Invitrogen). Four μl of cDNA was put into 20 μl vessel with 1 μl of 20× TaqMan Gene Expression Assay. Taqman Gene Expression Assays (Applied Biosystems) containing primers and a Taqman probe were used to quantify each gene of interest. The genes examined were IL-6 (Rn01410330 m1, M26744.1) and IDO1 (Rn00576778 m1, AF312699.1) for rats and IL-6 (Mm00446190 m1, X54542.1) and IDO1 (Mm00492586 m1, M69109.1) for mice. […] The RNA expression of GAPDH was measured as control.

[1] = system: IDO1 expression in hippocampal organotypic slice culture; test: IL-6 exposure of organotypic hippocampal slice culture: IDO1 expression and activity; assay type: cell-based, rat; conditions: 100 ng/ml for 24 hours
Source text: According to a modified method (Stoppini, L., Buchs, P. A., and Muller, D. 1991. A simple method for organotypic cultures of nervous tissue. J Neurosci. Methods 37:173-182.; Fu, X., Zunich, S. M., O'Connor, J. C., Kavelaars, A., Dantzer, R., and Kelley, K. W. 2010. Central administration of lipopolysaccharide induces depressive-like behavior in vivo and activates brain indoleamine 2,3 dioxygenase in murine organotypic hippocampal slice cultures. J Neuroinflammation. 7:43) organotypic hippocampal cultures were prepared using hippocampus slices from 5 to 8-day-old Wistar rats. Rat pups were euthanized by decapitation and brains were rapidly removed and the hippocampus was separated from the brain. Hippocampal slices (350 μm in thickness) were made using a Mcllwain tissue chopper (Campden Instruments Ltd) and placed in the Gey's balanced salt solution (Sigma-Aldrich) with 2 mg/ml D-glucose. Slices were then placed on 30-mm Millicell-CM (Millipore) porous (0.4 μm) membranes. These membranes were transferred into six-well culture plates filled with an incubation medium (1 ml) consisting of 50% vol/vol minimal essential medium, 25% heat-inactivated horse serum and 25% HBSS (Invitrogen), supplemented with 25 mM D-glucose. Plates were incubated in a humidified atmosphere of 5% CO2 and 95% air at 37° C. Culture medium was changed 3 times a week. Slices were treated with 100 ng/ml IL-6 or vehicle and collected 24 hours later for assays (Hakkoum, D., Stoppini, L., and Muller, D. 2007. Interleukin-6 promotes sprouting and functional recovery in lesioned organotypic hippocampal slice cultures. J Neurochem. 100:747-757).
Rats were sacrificed under pentobarbital anesthesia. The hippocampus was separated from the brain and immediately stored on dry ice and kept at −80° C. until use. Samples were homogenized in a lysis buffer with SDS containing a cocktail of proteinase inhibitors (Roche). Samples were separated on an SDS-PAGE gel (4%-15% gradient gel; Bio-Rad) and transferred to polyvinylidene difluoride filter (PVDF) membranes (Millipore). Membranes were blocked with 5% nonfat dried milk for 1 hour at room temperature and incubated over night at 4° C. on a rocker with one of following primary antibody: 1:200 IDO1 (Santa Cruz Biotechnology Inc.; rabbit polyclonal antibody), 1:200 IDO1 (Novius Biologicals; rabbit polyclonal antibody), 1:500 JAK2 (Santa Cruz Biotechnology Inc.; rabbit polyclonal antibody), 1:1,000 STAT3 (Millipore; rabbit polyclonal antibody), 1:5,000 p-STAT3 (Abcam; rabbit monoclonal antibody). After membranes were washed with PBS×4, membranes were incubated with 1:8,000 HRP conjugated secondary antibody (Amersham, Biosciences) for 1 hour at room temperature on a rocker. The membranes were washed with PBS×4 and blots were visualized in enhanced Chemiluminescent (ECL) solution (Pierce) for 5 minutes and exposed to hyperfilms (Kodak) for 15 minutes. Blots were again incubated in a Stripping buffer (Pierce) for 15 minutes at room temperature on a rocker and reprobed with 1:12,000 anti-β-actin antibody (Abeam Inc.) as a loading control. Western blots were made in triplicates. Band density was measured and normalized against a loading control band.
Total RNA was isolated from hippocampal samples using TRIzol reagent (Invitrogen). […] Taqman Gene Expression Assays (Applied Biosystems) containing primers and a Taqman probe were used to quantify each gene of interest. […]

naive rats = test: Intra-hippocampal microinjection in naive rats: nociceptive and depressive behavior; assay type: in vivo, rat; conditions: 0.1 μg once daily x 7 d into the left hippocampus of naive rats
Protocol: as §1
Animals were habituated to a test setting (30-min session) for three consecutive days. Thermal withdrawal threshold was assessed using the Hargreaves' apparatus and method (Hargreaves, K., et al., 1988. A new and sensitive method for measuring thermal nociception in cutaneous hyperalgesia. Pain 32:77-88). Mechanical withdrawal threshold was assessed using von Frey filaments (Tal, M., and Bennett, G. J. 1994. Extra-territorial pain in rats with a peripheral mononeuropathy: mechano-hyperalgesia and mechano-allodynia in the territory of an uninjured nerve. Pain 57:375-382).
FST was performed according to the original method by Porsolt et al (Porsolt, R. D., Le, P. M., and Jalfre, M. 1977. Depression: a new animal model sensitive to antidepressant treatments. Nature 266:730-732). The total duration of immobility (non-swimming) within a 5-min session was recorded as immobility scores (in seconds) and compared among groups.

B1: IL-6: exogenous IL-6 (recombinant rat IL-6), proinflammatory cytokine (protein, UniProt P20607 25-211, looked up)
Interleukin-6: FPTSQVRRGDFTEDTTHNRPVYTTSQVGGLITYVLREILEMRKELCNGNSDCMNSDDALSENNLKLPEIQRNDGCFQTGYNQEICLLKICSGLLEFRFYLEFVKNNLQDNKKDKARVIQSNTETLVHIFKQEIKDSYKIVLPTPTSNALLMEKLESQKEWLRTKTIQLILKALEEFLKVTMRSTRQT
hippocampal IDO1 mRNA expression (FIG. 9H) (IDO1): increased IDO1 mRNA expression in the hippocampus; also recorded: up-regulated the hippocampal IDO1 mRNA expression | IDO1 immunoreactivity (FIG. 8F) [1]: increased IDO1 immunoreactivity; also recorded: increased the expression of IDO1 | IDO1 mRNA expression (real-time PCR; FIG. 8G) ([1]; P<0.05): up-regulated; also recorded: increased the expression of IDO1 | IDO1 protein expression (Western blot; FIG. 8H) ([1]; P<0.05): up-regulated; also recorded: increased the expression of IDO1 | kynurenine/tryptophan ratio in the culture medium (HPLC; FIG. 8I) ([1]; P<0.05): significantly increased; also recorded: increased KYN/TRP ratio | serotonin/tryptophan ratio in the culture medium (HPLC; FIG. 8I) ([1]; P<0.05): decreased 5-HT/TRP ratio | depressive behavior in forced swimming test (FIG. 9G) (naive rats; P<0.001): induced depressive behavior in forced swimming test | thermal hyperalgesia on the right hindpaw (FIG. 9F) (naive rats; P<0.01): induced | mechanical allodynia on the right hindpaw (FIG. 9E) (naive rats; P<0.05 vs vehicle): induced

— patent US20150196533A1, “METHOD FOR CONCURRENT TREATMENT OF PAIN AND DEPRESSION” (The General Hospital Corporation, priority 2012, published 2015)
